From the Human Domainome abundance scans (Beltran et al. 2025)
± gives the uncertainty stated by the source.

B1: Zinc finger homeobox protein 4, residues 2086 to 2141; numbered along this chain, Q86UP3 (parent)
chain: RPRTRITDDQLKILRAYFDINNSPSEEQIQEMAEKSGLSQKVIKHWFRNTLFKERQ
B2: REST corepressor 3, residues 87 to 134; numbered along this chain, Q9P2K3 (parent)
chain: DEWTVEDKVLFEQAFSFHGKSFHRIQQMLPDKTIASLVKYYYSWKKTR

Variants of: B1
Experiment: abundance fitness (aPCA) (normalised: wild type 0, dead -1); higher = more abundant; growth selection in yeast, the domain comes from the species named
Conditions: Homo sapiens

Variant | abundance fitness
R15V | -0.151 ± 0.073
I6N | -0.377 ± 0.084
T50M | 0.065 ± 0.1
Y17D | -0.16 ± 0.11
Q56K | 0.295 ± 0.33
S36N | -0.374 ± 0.18
P24G | -0.793 ± 0.14
I13F | -0.13 ± 0.19
E54P | -0.182 ± 0.11
K35V | -0.418 ± 0.078
R55L | -0.091 ± 0.087
N49I | 0.019 ± 0.12
S39P | -0.115 ± 0.34
L38V | -0.117 ± 0.069
I29T | -0.266 ± 0.1
M32F | -0.547 ± 0.14
T50C | -0.213 ± 0.11
E31K | 0.108 ± 0.12
R15T | -0.065 ± 0.088
E31V | -0.031 ± 0.075
I43M | -0.541 ± 0.097
L38A | -0.06 ± 0.076
P24E | -0.326 ± 0.18
R15I | -0.296 ± 0.16
L14F | -0.304 ± 0.28
E31Y | -0.162 ± 0.14

Variant | abundance fitness
Q40K | 0.082 ± 0.12
E27D | -0.18 ± 0.29
S23P | -0.003 ± 0.11
S36R | -0.533 ± 0.066
N21F | -0.191 ± 0.12
I29F | -0.02 ± 0.13
Q28P | -0.533 ± 0.094
Q40I | -0.091 ± 0.12
E26C | -0.211 ± 0.12
Q56N | -0.083 ± 0.18
Q10W | -0.817 ± 0.1
K12M | -0.071 ± 0.091
E54W | -0.215 ± 0.095
H45Y | -0.034 ± 0.083
T4F | 0.036 ± 0.12
R1T | -0.131 ± 0.12
F47M | -0.097 ± 0.12
P24D | -0.844 ± 0.14
D9H | 0.044 ± 0.074
T7K | -0.344 ± 0.23
S23D | -0.131 ± 0.12
V42K | -0.079 ± 0.12
F52H | 0.018 ± 0.15
K41I | -0.106 ± 0.15
Q30E | -0.154 ± 0.1
P2N | 0.18 ± 0.16

Variant | abundance fitness
L38F | -0.793 ± 0.13
V42S | -0.059 ± 0.076
F18M | -0.043 ± 0.1
Y17C | -0.192 ± 0.08
S36I | -0.082 ± 0.15
R3S | 0.071 ± 0.079
H45Q | -0.006 ± 0.081
K44D | 0.068 ± 0.11
L51Y | -0.098 ± 0.18
T7Y | -0.491 ± 0.093
L14H | -1 ± 0.23
E31W | -0.26 ± 0.086
N21T | 0.009 ± 0.089
Q30S | -0.159 ± 0.1
P2Q | 0.173 ± 0.13
D19E | 0.054 ± 0.092
E26P | -0.032 ± 0.093
I43G | -1.24 ± 0.099
E34N | -0.136 ± 0.14
S23W | -0.176 ± 0.093
R3E | 0.054 ± 0.12
Q28T | -0.034 ± 0.11
D19L | 0.086 ± 0.079
S39W | -1.16 ± 0.33

Variants of: B2
Experiment: as above
Conditions: Homo sapiens

Variant | abundance fitness
V9R | -0.167 ± 0.12
Q26R | -0.232 ± 0.11
S36K | -0.627 ± 0.37
F17G | -0.793 ± 0.25
K32N | -0.776 ± 0.093
V5A | -0.137 ± 0.11
T47R | -0.071 ± 0.22
Y40V | -0.824 ± 0.32
V9T | -0.024 ± 0.23
E12G | -0.708 ± 0.31
L29R | -0.771 ± 0.24
E2T | -0.302 ± 0.26
V5F | -0.222 ± 0.32
K32Y | -0.885 ± 0.12
K32G | -0.89 ± 0.075
I25A | -0.567 ± 0.2
V38Q | -0.499 ± 0.17
I25P | -0.568 ± 0.25
K46F | -0.54 ± 0.38
I25M | -0.708 ± 0.45
K39G | -0.11 ± 0.064
K32Q | -0.888 ± 0.18
K39Y | -0.193 ± 0.2

Variant | abundance fitness
K20S | -0.393 ± 0.17
S36H | -0.241 ± 0.31
Q26F | -0.595 ± 0.46
M28T | -0.461 ± 0.39
W44V | -1 ± 0.43
V9L | -0.28 ± 0.19
T47L | -0.408 ± 0.26
K32T | -0.819 ± 0.093
S43W | -0.327 ± 0.11
V5D | -0.104 ± 0.17
T33N | -0.508 ± 0.38
I34T | -0.644 ± 0.16
K45W | -0.61 ± 0.22
L37I | -0.35 ± 0.43
S43C | -0.027 ± 0.16
A35H | -0.214 ± 0.14
A35Q | -0.258 ± 0.15
K45G | -0.69 ± 0.43
E6A | -0.388 ± 0.15
L29F | -0.302 ± 0.24
K39S | -0.168 ± 0.062
D1E | -0.195 ± 0.25
T47W | -0.542 ± 0.31

Variant | abundance fitness
T33E | -0.647 ± 0.27
K39P | -0.86 ± 0.25
V5Q | -0.154 ± 0.15
W3S | -0.651 ± 0.38
I25Y | -0.522 ± 0.28
T47I | -0.623 ± 0.49
F22V | -0.809 ± 0.25
V5S | -0.3 ± 0.13
Q13C | -1.02 ± 0.46
T33K | -0.109 ± 0.19
D31S | 0.225 ± 0.091
M28F | -0.502 ± 0.46
T4G | -0.84 ± 0.28
F15G | -0.731 ± 0.18
E6F | -0.542 ± 0.43
F11P | -0.834 ± 0.39
P30K | -0.177 ± 0.46
K39E | -0.574 ± 0.2
K20R | -0.544 ± 0.19
K20G | -0.278 ± 0.14
A14T | -0.609 ± 0.31
T33R | -0.688 ± 0.16
L37A | -0.673 ± 0.31

Variant | abundance fitness
P30G | -0.957 ± 0.33
Y41K | -0.398 ± 0.36
K45N | 0.014 ± 0.4
Q13M | -0.101 ± 0.29
H23N | -0.124 ± 0.33
Q13G | -0.948 ± 0.23
V38E | -0.12 ± 0.16
L29W | -0.932 ± 0.35
A14E | -0.811 ± 0.46
V9K | -0.201 ± 0.18
T4P | -0.83 ± 0.48
D7Q | -0.156 ± 0.22
Y40K | -0.346 ± 0.49
T33A | -0.55 ± 0.11
K39R | -0.221 ± 0.097
S16C | -0.607 ± 0.25
L37E | -0.628 ± 0.36
P30W | 0.322 ± 0.29
K20T | -0.399 ± 0.37
I34F | -0.036 ± 0.31
M28S | -0.517 ± 0.19
K45L | -0.597 ± 0.25
